Patent US20140004122A1, “METHODS FOR TREATING OR PREVENTING CHOLESTEROL RELATED DISORDERS” (AMGEN INC., priority 2011, published 2014)

Key:
[1] = target: D374Y PCSK9 binding to LDLR (Homo sapiens, UniProt Q8NBP7, D374Y); experiment: Large scale receptor ligand blocking screen and functional classification of ABPs; details: functional assays of the screening
Procedure: To screen for the antibodies that block PCSK9 binding to LDLR an assay was developed using the D374Y PCSK9 mutant. […] The following protocol was employed in the receptor ligand blocking screen: Costar 3702 medium binding 384 well plates (Corning Life Sciences) were employed in the screen. The plates were coated with goat anti-LDLR (R&D Cat #AF2148) at 2 μg/ml in 1×PBS/0.05% Azide at a volume of 40 μl/well. The plates were incubated at 4° C. overnight. The plates were then washed using a Titertek plate washer (Titertek, Huntsville, Ala.). A 3-cycle wash was performed. The plates were blocked with 90 μl of 1×PBS/1% milk and incubated approximately 30 minutes at room temperature. The plates were then washed using the Titertek plate washer. A 3-cycle wash was performed. The capture sample was LDLR (R&D, Cat #2148LD/CF), and was added at 0.4 μg/ml in 1×PBS/1% milk/10 mM Ca^2+ at a volume of 40 μl/well. The plates were then incubated for 1 hour and 10 minutes at room temperature. Contemporaneously, 20 ng/ml of biotinylated human D374Y PCSK9 was incubated with 15 micro liters of hybridoma exhaust supernatant in Nunc polypropylene plates and the exhaust supernatant concentration was diluted 1:5. The plates were then pre-incubated for about 1 hour and 30 minutes at room temperature. Next, the plates were washed using the Titertek plate washer operated using a 3-cycle wash. 50 μl/well of the pre-incubated mixture was transferred onto the LDLR coated ELISA plates and incubated for 1 hour at room temperature. To detect LDLR-bound b-PCSK9, 40 μl/well streptavidin HRP at 500 ng/ml in assay diluent was added to the plates. The plates were incubated for 1 hour at room temperature. The plates were again washed using a Titertek plate washer. A 3-cycle wash was performed. Finally, 40 μl/well of One-step TMB (Neogen, Lexington, Ky.) was added to the plate and was quenched with 40 μl/well of 1N hydrochloric acid after 30 minutes at room temperature. OD's were read immediately at 450 nm using a Titertek plate reader.
The receptor ligand assay was then repeated using the mutant enzyme on the 384 member subset of neutralizers identified in the first large scale receptor ligand inhibition assay. The same protocol was employed in the screen of the 384 member blocker subset assay as was done in the large scale receptor ligand blocking screen.
Limiting dilution was used to isolate a manageable number of clones from each line. […] The isolated clones were each expanded in 50-100 ml of hybridoma media and allowed to grow to exhaustion, (i.e., less than about 10% cell viability). The concentration and potency of the antibodies to PCSK9 in the supernatants of those cultures were determined by ELISA and by in vitro functional testing, as described herein.

D374Y PCSK9/LDLR binding = D374Y PCSK9/LDLR binding (Homo sapiens, UniProt Q8NBP7, D374Y); experiment: Blocking D374Y PCSK9/LDLR binding (Example 9); details: 20 ng/ml biotinylated D374Y PCSK9
Procedure: Clear 384 well plates (Costar) were coated with 2 micrograms/ml of goat anti-LDL receptor antibody (R&D Systems) diluted in buffer A (100 mM sodium cacodylate, pH 7.4). Plates were washed thoroughly with buffer A and then blocked for 2 hours with buffer B (1% milk in buffer A). After washing, plates were incubated for 1.5 hours with 0.4 micrograms/ml of LDL receptor (R&D Systems) diluted in buffer C (buffer B supplemented with 10 mM CaCl2). […] The LDL receptor containing plates were washed and the biotinylated D374Y PCSK9/antibody mixture was transferred to them and incubated for 1 hour at room temperature. Binding of the biotinylated D374Y to the LDL receptor was detected by incubation with streptavidin-HRP (Biosource) at 500 ng/ml in buffer C followed by TMB substrate (KPL). The signal was quenched with 1N HCl and the absorbance read at 450 nm.

[2] = target: D374Y human PCSK9 (HepG2 cells) (Homo sapiens, UniProt Q8NBP7, D374Y); experiment: Cell LDL uptake assay (Example 10); assay type: cell-based; details: 2 μg/ml D374Y human PCSK9, HepG2 cells
Procedure: Human HepG2 cells were seeded in black, clear bottom 96-well plates (Costar) at a concentration of 5×10^5 cells per well in DMEM medium (Mediatech, Inc) supplemented with 10% FBS and incubated at 37° C. (5% CO2) overnight. To form the PCSK9 and antibody complex, 2 μg/ml of D374Y human PCSK9 was incubated with various concentrations of antibody diluted in uptake buffer (DMEM with 1% FBS) or uptake buffer alone (control) for 1 hour at room temperature. After washing the cells with PBS, the D374Y PCSK9/antibody mixture was transferred to the cells, followed by LDL-BODIPY (Invitrogen) diluted in uptake buffer at a final concentration of 6 μg/ml. After incubation for 3 hours at 37° C. (5% CO2), cells were washed thoroughly with PBS and the cell fluorescence signal was detected by Safire™ (TECAN) at 480-520 nm (excitation) and 520-600 nm (emission).

[3] = tested on: wild type (WT) mice (C57BL/6); experiment: Serum cholesterol and HDL in 13 day study; assay type: in vivo, mouse; details: 10 mg/kg, repeated 13 day study (FIG. 10C)
From the text: Male WT mice (C57BL/6 strain, aged 9-10 weeks, 17-27 g) obtained from Jackson Laboratory (Bar Harbor, Me.) were fed a normal chow (Harland-Teklad, Diet 2918) through out the duration of the experiment. […] Naïve mice were also set aside as naïve control group.
Animals were sacrificed and livers were extracted and prepared as in Example 11.
The HDL levels for the animals in Example 13 were also examined.

Molecule	neutralizing ability (blocking PCSK9/LDLR) [1]	also measured
27B2: anti-PCSK9 antibody; light/heavy variable region SEQ ID NO 13/87 (antibody, listed as Homo sapiens, V domains shown) VH: QVQLQESGPGLVKPSQTLSLTCTVSGGSISSGGYYWSWIRQHPGKGLEWIGYIYNSGSTYYNPSLKSRVTISVDTSKNQFSLKLSSVTAADTAVYYCAREDTAMVPYFDYWGQGTLVTVSS VL: QSVLTQPPSVSGAPGQRVTISCTGSSSNIGAHYDVHWYQQVPGTAPKLLIYGNTYRPSGVPDRFSGSKSGTSASLAITGLQAEDEADYYCQSYDNSLSGVVFGGGTKLTVL	non-neutralizing	–
13H1: anti-PCSK9 antibody; light/heavy variable region SEQ ID NO 28/91 (antibody, listed as Homo sapiens, V domains shown) VH: QVQLQQSGPGLVKPSQTLSLTCAISGDSVSSNSAAWNWIRQSPSRGLEWLGRTYYRSKWYKNYSVSVKSRITINPDTSKNQFSLQLNSVTPGDTAVYYCARGGPTAAFDYWGQGTLVTVSS VL: LSALTQPASVSGSPGQSITISCTGTSSDVGNYNLVSWYQQYSGKAPKLMIYEVSKRPSGVSNRFSGSKSGNTASLTISGLQAEDEADYYCCSYAGSSTLVFGGGTKLTVL	non-neutralizing	–
13B5: anti-PCSK9 antibody; light/heavy variable region SEQ ID NO 42/69 (antibody, listed as Homo sapiens, V domains shown) VH: EVQLLESGGGLVQPGGSLRLSCAASGFTFSSYAMSWVRQAPGKGLEWVSTISGSGGRTYYADSVKGRFTISRDNSKNTLYLQMNSLRAEDTAVYYCAKEVGSPFDYWGQGTLVTVSS VL: QSVLTQPPSVSAAPGQKVTISCSGSNSNIGNNYVSWYQQLPGTAPKLLIYDNNKRPSGIPDRFSGSNSGTSATLGITGLQTGDEADYYCGTWDSSLSAVVFGGGTKLTVL	non-neutralizing	–
3B6: anti-PCSK9 antibody; light/heavy variable region SEQ ID NO 46/60 (antibody, listed as Homo sapiens, V domains shown) VH: QVQLVQSGAEVKKPGASVKVSCKASGYTFTSYGISWVRQAPGQGLEWMGWISTYNGNTNYAQKVQGRVTMTTDTSTSTAYMELRSLRSDDTAVYYCARGYTRDYWGQGTLVTVSS VL: QPVLTQPLFASASLGASVTLTCTLSSGYSSYEVDWYQQRPGKGPRFVMRVDTGGIVGSKGEGIPDRFSVLGSGLNRYLTIKNIQEEDESDYHCGADHGSGTNFVVVFGGGTKLTVL	weak neutralizers	–
25A7: anti-PCSK9 antibody; light/heavy variable region SEQ ID NO 15/58; 25A7.3 referred to as 25A7 (antibody, listed as Homo sapiens, V domains shown) VH: QVQLVQSGAEVKKPGASVKVSCKASGYTFPSYGISWVRQAPGQGLEWMGWISAYNGNTNYAEKLQGRVTMTTDTSTSTAYMEVRSLRSDDTAVFYCARGYVMDVWGQGTTVTVSS VL: QSALTQPASVSGSPGQSITISCTGTSSDVGRYNSVSWYQHHPGKAPKVMIYEVSNRPSGVSTRFSGSKSGNTASLTISGLQAEDEADYYCSSYTSSSVVFGGGTKLTVL	neutralizing	–
21B12 IgG2: human 21B12 IgG2 antibody produced from transfected cells (antibody) heavy: QVQLVQSGAEVKKPGASVKVSCKASGYTLTSYGISWVRQAPGQGLEWMGWVSFYNGNTNYAQKLQGRGTMTTDPSTSTAYMELRSLRSDDTAVYYCARGYGMDVWGQGTTVTVSSASTKGPSVFPLAPCSRSTSESTAALGCLVKDYFPEPVTVSWNSGALTSGVHTFPAVLQSSGLYSLSSVVTVPSSNFGTQTYTCNVDHKPSNTKVDKTVERKCCVECPPCPAPPVAGPSVFLFPPKPKDTLMISRTPEVTCVVVDVSHEDPEVQFNWYVDGVEVHNAKTKPREEQFNSTFRVVSVLTVVHQDWLNGKEYKCKVSNKGLPAPIEKTISKTKGQPREPQVYTLPPSREEMTKNQVSLTCLVKGFYPSDIAVEWESNGQPENNYKTTPPMLDSDGSFFLYSKLTVDKSRWQQGNVFSCSVMHEALHNHYTQKSLSLSPGK light: QSALTQPASVSGSPGQSITISCTGTSSDVGGYNSVSWYQQHPGKAPKLMIYEVSNRPSGVSNRFSGSKSGNTASLTISGLQAEDEADYYCNSYTSTSMVFGGGTKLTVLQPKAAPSVTLFPPSSEELQANKATLVCLISDFYPGAVTVAWKADSSPVKAGVETTTPSKQSNNKYAASSYLSLTPEQWKSHRSYSCQVTHEGSTVEKTVAPTECS	–	IC50 (D374Y PCSK9/LDLR binding): 0.17 nM; IC50 [2]: 13.3 nM
16F12: anti-PCSK9 antibody; light/heavy variable region SEQ ID NO 35/79 (antibody, listed as Homo sapiens, V domains shown) VH: QVHLVESGGGVVQPGRSLRLSCAASGFTFNSFGMHWVRQAPGKGLEWVALIWSDGSDEYYADSVKGRFTISRDNSKNTLYLQMNSLRAEDTAVYYCARAIAALYYYYGMDVWGQGTTVTVSS VL: QSVLTQPPSVSAAPGQKVTISCSGSSSNIGNNFVSWYQQLPGTAPKLLIYDYNKRPSGIPDRFSGSKSGTSATLGITGLQTGDEADYYCGTWDSSLSAYVFGTGTRVTVL	–	total serum cholesterol after a single dose [3]: significant and substantial decreases in total serum cholesterol
